In paper PMC11410209:

Biological target: 2526 IgG3
Test: ELISA
Conditions: read at the highest mAb concentration, 10 µg/ml; parent: est. 4.0; read off a plot

Substance: BG505.SOSIP with a glycan at position 332 (Fig 5C) N332T
- response: 3.1 Abs (450nm)
